Literature values in PMC3379994, “Comprehensive Analysis of Interactions between the Src-Associated Protein in Mitosis of 68 kDa and the Human Src-Homology 3 Proteome” (PLoS ONE, 2012).
pKd: −log10 of the molar value.

Target: Nef (Human immunodeficiency virus 1) (UniProt P04324)
Test: SPR

Sequence of Hck SH3 (P08631 75-141): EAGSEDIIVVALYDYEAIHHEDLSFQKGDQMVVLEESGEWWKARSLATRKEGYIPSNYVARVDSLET

## Hck SH3 (from UniProt P08631)
  pKd: 6.60
